Among the data in PMC12224427, “The non-metabolic function of 6PGD coordinates CCNA2 and HMGA2 expression to drive colorectal cancer progression and drug response” (Journal of Experimental & Clinical Cancer Research : CR, 2025) are Kd values, retold here.

The test has as its target T1, recombinant 6PGD (re6PGD) (UniProt P52209 1-483).
T1 construct: 6-phosphogluconate dehydrogenase (6PGD), wild type; source: bacterially expressed recombinant
T1 sequence (looked up): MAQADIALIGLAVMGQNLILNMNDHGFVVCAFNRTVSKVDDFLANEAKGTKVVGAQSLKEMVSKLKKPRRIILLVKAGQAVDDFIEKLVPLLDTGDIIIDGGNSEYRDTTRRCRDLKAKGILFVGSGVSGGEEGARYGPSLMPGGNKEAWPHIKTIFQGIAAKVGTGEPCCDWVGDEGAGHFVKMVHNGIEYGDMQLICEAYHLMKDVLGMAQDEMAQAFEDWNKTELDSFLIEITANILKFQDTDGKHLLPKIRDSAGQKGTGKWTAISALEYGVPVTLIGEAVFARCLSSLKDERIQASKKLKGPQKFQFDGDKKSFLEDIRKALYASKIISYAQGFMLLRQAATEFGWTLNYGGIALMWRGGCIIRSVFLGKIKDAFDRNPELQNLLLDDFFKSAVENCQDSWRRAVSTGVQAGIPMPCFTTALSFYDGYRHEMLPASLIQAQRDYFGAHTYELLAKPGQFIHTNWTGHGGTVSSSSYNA
Put plainly: MST; microscale thermophoresis of 6PGD and ALKBH5 (Fig. S5A); conditions not shown. As to conditions: both partners purified.

B1: recombinant ALKBH5 (reALKBH5; aa:66–292) (domain or fragment, UniProt Q6P6C2 66-292, looked up)
chain: PERSDYEEQQLQKEEEARKVKSGIRQMRLFSQDECAKIEARIDEVVSRAEKGLYNEHTVDRAPLRNKYFFGEGYTYGAQLQKRGPGQERLYPPGDVDEIPEWVHQLVIQKLVEHRVIPEGFVNSAVINDYQPGGCIVSHVDPIHIFERPIVSVSFFSDSALCFGCKFQFKPIRVSEPVLSLPVRRGSVTVLSGYAADEITHCIRPQDIKERRAVIILRKTRLDAPRL
notes: ALKBH5, residues 66-292; The range 66-292 is printed where the in vitro methylation assay is told; source: recombinant
In general, Kd refers to the concentration at which binding is half-saturated. As for B1, the Kd came to 1.63 µM.
